We go through 15 molecules from paper PMC3364950, “Structure and Functional Analysis of the RNA- and Viral Phosphoprotein-Binding Domain of Respiratory Syncytial Virus M2-1 Protein”.

Data set [1] concerns the target GST-M2-1 L148A (full-length) (human respiratory syncytial virus (strain Long)). The data set can be described thus: pull-down; ~25 µM GST-M2-1 (or GST) on Glutathione-Sepharose 4B beads in PBS with a 3-fold molar excess of purified P, 1 h at 20°C; washed with PBS; SDS-PAGE, Coomassie blue, bands quantified with ImageJ.
Data set [2] deals with GST-M2-1 N163D (full-length) (human respiratory syncytial virus (strain Long)). The data set is described as above.
For data set [3], the target named is GST-M2-1 R126D (full-length) (human respiratory syncytial virus (strain Long)). Described as above.
The target in data set [4] is GST-M2-1 T130D (full-length) (human respiratory syncytial virus (strain Long)). The description is as above.
Data set [5] deals with GST-M2-1 T160D (full-length) (human respiratory syncytial virus (strain Long)). Described as above.
Data set [6] deals with RSV phosphoprotein P, full-length (P_(1–241)) (UniProt P12579). Kind of data set: GST pull-down. To be noted: parent: est. 100; read off a plot.
Data set [7] deals with RSV phosphoprotein P, full-length (P_(1–241)) (human respiratory syncytial virus (strain Long)) (UniProt P12579). The data set can be described thus: ITC; M2-1_(58–177) (335 µM, 20 injections of 2 µL) injected into P (33 µM) in the cell; 1× PBS; 20°C.
The target in data set [8] is T1, M2-1(58-177) core domain (human respiratory syncytial virus (hRSV, strain Long per Fig S7)) (UniProt P04545).
T1 sequence: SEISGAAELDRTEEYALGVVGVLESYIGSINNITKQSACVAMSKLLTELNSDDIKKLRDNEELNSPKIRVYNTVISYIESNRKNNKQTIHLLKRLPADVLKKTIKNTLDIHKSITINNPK
The data set can be described thus: NMR titration. To be noted: NMR: 50-60 µM protein, 293 K, 14.1 T, 1:1 model, buffer/salt/pH not in material; EMSA: 100 µM GST fusion eluted with GSH, ~50 µM tRNA, 1 h room temperature …. For orientation: In EMSA bound probe runs differently from free probe, usually more slowly.

The target in the next data set is T2, M2-1(58-177) core domain (human respiratory syncytial virus …, UniProt P04545 58-177).
T2 sequence: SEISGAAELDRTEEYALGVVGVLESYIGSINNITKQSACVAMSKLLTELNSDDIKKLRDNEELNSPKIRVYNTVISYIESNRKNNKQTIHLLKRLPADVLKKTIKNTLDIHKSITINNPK
The data set can be described thus: NMR titration; NMR: 50-60 µM protein, 293 K, 14.1 T, 1:1 model, buffer/salt/pH not in material; EMSA: 100 µM GST fusion eluted with GSH, ~50 µM tRNA, 1 h room temperature, 1.5% agarose, 1x Tris-Glycine, 4°C. As to conditions: protein: recombinant, tags: N-terminal Gly-Ser left after thrombin cleavage of GST.

The mark [9] stands for this setting: predicted hairpin, poly-U loop, 2-3 bp stem.

Regarding “RSV phosphoprotein P, full-length (P_(1–241)) (from UniProt P12579 1-241) (natural protein)”, the decrease in P binding against WT in data set [1], in data set [2], in [3], in data set [4] and in [5] was more than 50% throughout.

As to “GST-M2-1 (full-length M2-1 fused to GST), WT K92D”, in data set [6], the percent of parent stood at 54 % WT.

As to “GST-M2-1 (full-length M2-1 fused to GST), WT R151D”, the percent of parent in data set [6] stood at 44 % WT.

In data set [7], “RSV M2-1_(58–177) core domain (domain or fragment)” came in with an equilibrium dissociation constant (Kd) of 3000 nM and a stoichiometry N of 1.

Turning to AGUUAUAUAAAA / UUUUAUAUAACU [GE_F-ds], the Kd in [8] amounted to 4.5 µM.

Regarding “GST-M2-1 (full-length M2-1 fused to GST), WT K150D”, in data set [6], the percent of parent amounted to 63 % WT.

Take CCCAUUUUUUUGGUU (ssRNA) [long U-rich]: the Kd in the data set with M2-1(58-177) core domain (setting [9]) was 125 ± 35 µM.

Take CCAAAAAAAU (ssRNA) [short A-rich (short polyA)]: the Kd with M2-1(58-177) core domain turned out to be 22 ± 6 µM.

For the molecule CGCAUUUUUUCGCGU (ssRNA) [leader-neg], the Kd with M2-1(58-177) core domain (setting [9]) was 75 ± 15 µM.

Regarding UUUUAUAUAACU (ssRNA) [GE_F-neg], the dissociation constant (Kd) with M2-1(58-177) core domain stood at 85 ± 25 µM.

ACGCGAAAAAAU (ssRNA) [leader-pos]: in the data set with M2-1(58-177) core domain (partial self-association (two G-C and U-A pairs) seen by NMR), the Kd worked out at 2.5 ± 1.5 µM.

As to UAUUUGCCCC (ssRNA) [GS-neg], the Kd with M2-1(58-177) core domain amounted to 110 ± 15 µM.

Regarding TTTTATATAACT (ssDNA) [GE_F-DNA], the dissociation constant (Kd) with M2-1(58-177) core domain was determined as 250 ± 70 µM.

With UUUUUAAUUAACU (ssRNA) [GE_SH-neg], in the data set with M2-1(58-177) core domain, the Kd came out at 75 ± 15 µM.

Regarding GCGCUUUUUUAAGCGC (structured_RNA) [UGA2], the Kd with M2-1(58-177) core domain (hairpin, 5 bp, U-stretch) worked out at 60 ± 10 µM.

As usually defined, the Kd is the equilibrium constant for the complex coming apart. The stoichiometry N is the number of molecules, sites or subunits per partner or assembly.
